The assay has as its target Flag-eIF4E tagged with homotetrameric tag 6 (HOTag6), the eIF4E part of TORSEL (UniProt P06730).

Here are results for one substance from PMC11143692.

UniProt P06730, sequence (P06730 whole entry): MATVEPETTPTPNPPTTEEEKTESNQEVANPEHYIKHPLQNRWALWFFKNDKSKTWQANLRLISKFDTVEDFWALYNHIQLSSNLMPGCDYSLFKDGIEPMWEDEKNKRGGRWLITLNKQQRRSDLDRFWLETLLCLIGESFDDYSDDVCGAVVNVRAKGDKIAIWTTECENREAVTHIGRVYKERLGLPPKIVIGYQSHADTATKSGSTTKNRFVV

As to “HA-tagged 4EBP1 tagged with mCherry and homohexameric tag 3 (HOTag3), the 4EBP1 part of TORSEL (from UniProt Q13541 1-118) (natural protein)”, the TORSEL fluorescent puncta in living U2OS cells when mTORC1 is suppressed by serum deprivation, EAA starvation or rapamycin; diffuse under normal culture conditions; 50-90% of cells with visible puncta was 50 to 90 % of cells.
